From patent US20250243257A1

Molecular target: surface GFP (GFP fused to the PDGF transmembrane domain) [GFP: P42212]
Assay: cell-based or functional assay

α-GFP nanobody (LaG16_2) synNotch Gal4VP64 receptor (from UniProt Q01705 1427-1752)
fraction of T cells with BFP reporter expression at 24 hours: > 50%
